The chains are these.
T1: EsCas13d, nuclease-dead (Eubacterium siraeum, UniProt B0MS50, R295A;H300A;R849A;H854A)
T1 sequence: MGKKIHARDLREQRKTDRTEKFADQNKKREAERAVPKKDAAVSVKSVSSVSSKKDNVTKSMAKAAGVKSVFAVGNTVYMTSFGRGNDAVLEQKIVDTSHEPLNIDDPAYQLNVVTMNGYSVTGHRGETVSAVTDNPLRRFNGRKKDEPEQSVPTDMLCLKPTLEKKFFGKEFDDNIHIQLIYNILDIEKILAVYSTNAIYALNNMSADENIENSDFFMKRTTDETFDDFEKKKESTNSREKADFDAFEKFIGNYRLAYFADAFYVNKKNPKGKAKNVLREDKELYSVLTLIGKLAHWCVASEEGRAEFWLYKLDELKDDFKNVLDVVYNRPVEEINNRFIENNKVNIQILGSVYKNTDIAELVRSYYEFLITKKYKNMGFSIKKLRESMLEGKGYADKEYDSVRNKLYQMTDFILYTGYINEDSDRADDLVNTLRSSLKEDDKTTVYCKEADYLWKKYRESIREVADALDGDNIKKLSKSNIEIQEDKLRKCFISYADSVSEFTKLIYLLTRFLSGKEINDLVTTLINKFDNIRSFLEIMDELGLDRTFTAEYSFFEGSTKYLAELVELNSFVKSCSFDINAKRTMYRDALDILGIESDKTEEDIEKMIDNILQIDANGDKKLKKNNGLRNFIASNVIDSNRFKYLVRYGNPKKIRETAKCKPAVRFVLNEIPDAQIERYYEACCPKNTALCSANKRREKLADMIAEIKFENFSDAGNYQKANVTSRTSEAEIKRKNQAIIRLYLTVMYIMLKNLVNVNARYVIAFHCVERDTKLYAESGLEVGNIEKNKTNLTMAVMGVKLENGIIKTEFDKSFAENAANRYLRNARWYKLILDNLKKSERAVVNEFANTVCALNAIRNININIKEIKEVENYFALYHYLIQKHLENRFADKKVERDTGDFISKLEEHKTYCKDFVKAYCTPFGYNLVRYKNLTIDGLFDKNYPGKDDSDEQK

B1: target 1 MT 5'PFS GUA 3'PFS UUG (mixed)
RNA 1: CACCCGUGCAAAAAUGCAGGGGUCUAAAACUGAGCGGAUAACCUCUCUAUGG
RNA 2: GGGAAUGGAUCCACAUCUACGAAUUCGUACCAUAGAGAGGUUAUCCGCUCAUUGAGAUCGGAAGAGCACACGU
B2: target 1 MT 5'PFS GUA 3'PFS UUA (mixed)
RNA 1: B1 RNA 1
RNA 2: B1 RNA 2 with G54A
B3: target 1 MT 5'PFS ACG 3'PFS ACA (mixed)
RNA 1: B1 RNA 1
RNA 2: B1 RNA 2 with G27A, U28C, A29G, U52A, U53C, G54A
B4: target 1 MT 5'PFS ACU 3'PFS AAA (mixed)
RNA 1: B1 RNA 1
RNA 2: B1 RNA 2 with G27A, U28C, A29U, U52A, U53A, G54A
B5: target 1 MT 5'PFS UUG 3'PFS AGA (mixed)
RNA 1: B1 RNA 1
RNA 2: B1 RNA 2 with G27U, A29G, U52A, U53G, G54A
B6: target 1 MT 5'PFS UAG 3'PFS UCA (mixed)
RNA 1: B1 RNA 1
RNA 2: B1 RNA 2 with G27U, U28A, A29G, U53C, G54A
B7: target 1 U11C,G17U (mixed)
RNA 1: B1 RNA 1
RNA 2: B1 RNA 2 with G35U, U41C, U52C, U53C
B8: target 1 MT 5'PFS CCC 3'PFS UUC (mixed)
RNA 1: B1 RNA 1
RNA 2: B1 RNA 2 with G27C, U28C, A29C, G54C
B9: target 1 MT 5'PFS GUC 3'PFS CAU (mixed)
RNA 1: B1 RNA 1
RNA 2: B1 RNA 2 with A29C, U52C, U53A, G54U
B10: target 1 insU 3' of 21,insC 3' of 3 (mixed)
RNA 1: B1 RNA 1
RNA 2: GGGAAUGGAUCCACAUCUACGAAUUCGUACCUAUAGAGAGGUUAUCCGCUCCACCGAGAUCGGAAGAGCACACGU
B11: target 1 MT 5'PFS GUC 3'PFS CAG (mixed)
RNA 1: B1 RNA 1
RNA 2: B1 RNA 2 with A29C, U52C, U53A
B12: target 1 MT 5'PFS ACG 3'PFS ACU (mixed)
RNA 1: B1 RNA 1
RNA 2: B1 RNA 2 with G27A, U28C, A29G, U52A, U53C, G54U
B13: target 1 MT 5'PFS ACU 3'PFS AAU (mixed)
RNA 1: B1 RNA 1
RNA 2: B1 RNA 2 with G27A, U28C, A29U, U52A, U53A, G54U
B14: target 1 MT 5'PFS GUU 3'PFS ACU (mixed)
RNA 1: B1 RNA 1
RNA 2: B1 RNA 2 with A29U, U52A, U53C, G54U
B15: target 1 MT 5'PFS GUA 3'PFS CCA (mixed)
RNA 1: B1 RNA 1
RNA 2: B1 RNA 2 with U52C, U53C, G54A
B16: target 1 MT 5'PFS AGA 3'PFS CAC (mixed)
RNA 1: B1 RNA 1
RNA 2: B1 RNA 2 with G27A, U28G, U52C, U53A, G54C
B17: target 1 MT 5'PFS GGG 3'PFS ACU (mixed)
RNA 1: B1 RNA 1
RNA 2: B1 RNA 2 with U28G, A29G, U52A, U53C, G54U
B18: target 1 MT 5'PFS CAA 3'PFS CAU (mixed)
RNA 1: B1 RNA 1
RNA 2: B1 RNA 2 with G27C, U28A, U52C, U53A, G54U
B19: target 1 MT 5'PFS ACA 3'PFS AAG (mixed)
RNA 1: B1 RNA 1
RNA 2: B1 RNA 2 with G27A, U28C, U52A, U53A
B20: target 1 MT 5'PFS CUG 3'PFS UUG (mixed)
RNA 1: B1 RNA 1
RNA 2: B1 RNA 2 with G27C, A29G
B21: target 1 MT 5'PFS UAG 3'PFS UCC (mixed)
RNA 1: B1 RNA 1
RNA 2: B1 RNA 2 with G27U, U28A, A29G, U53C, G54C
B22: target 1 MT 5'PFS GCG 3'PFS AAG (mixed)
RNA 1: B1 RNA 1
RNA 2: B1 RNA 2 with U28C, A29G, U52A, U53A
B23: target 1 MT 5'PFS GUU 3'PFS ACC (mixed)
RNA 1: B1 RNA 1
RNA 2: B1 RNA 2 with A29U, U52A, U53C, G54C
B24: target 1 MT 5'PFS GUA 3'PFS CCC (mixed)
RNA 1: B1 RNA 1
RNA 2: B1 RNA 2 with U52C, U53C, G54C
B25: target 1 MT 5'PFS UUG 3'PFS AGU (mixed)
RNA 1: B1 RNA 1
RNA 2: B1 RNA 2 with G27U, A29G, U52A, U53G, G54U
B26: target 1 MT 5'PFS GUA 3'PFS UUC (mixed)
RNA 1: B1 RNA 1
RNA 2: B1 RNA 2 with G54C
B27: target 1 MT 5'PFS AGA 3'PFS CAA (mixed)
RNA 1: B1 RNA 1
RNA 2: B1 RNA 2 with G27A, U28G, U52C, U53A, G54A
B28: target 1 MT 5'PFS CCC 3'PFS UUU (mixed)
RNA 1: B1 RNA 1
RNA 2: B1 RNA 2 with G27C, U28C, A29C, G54U
B29: target 1 insA 3' of 8,insA 3' of 3 (mixed)
RNA 1: B1 RNA 1
RNA 2: GGGAAUGGAUCCACAUCUACGAAUUCGUACCAUAGAGAGGUUAUACCGCUACACCGAGAUCGGAAGAGCACACGU
B30: target 1 MT 5'PFS CCC 3'PFS UUG (mixed)
RNA 1: B1 RNA 1
RNA 2: B1 RNA 2 with G27C, U28C, A29C
B31: target 1 MT 5'PFS GCG 3'PFS AAU (mixed)
RNA 1: B1 RNA 1
RNA 2: B1 RNA 2 with U28C, A29G, U52A, U53A, G54U
B32: target 1 MT 5'PFS GCG 3'PFS AAC (mixed)
RNA 1: B1 RNA 1
RNA 2: B1 RNA 2 with U28C, A29G, U52A, U53A, G54C
B33: target 1 MT 5'PFS GUA 3'PFS UUU (mixed)
RNA 1: B1 RNA 1
RNA 2: B1 RNA 2 with G54U
B34: target 1 C7A,U11G (mixed)
RNA 1: B1 RNA 1
RNA 2: B1 RNA 2 with U41G, C45A, U52C, U53C
B35: target 1 MT 5'PFS GCG 3'PFS AAA (mixed)
RNA 1: B1 RNA 1
RNA 2: B1 RNA 2 with U28C, A29G, U52A, U53A, G54A
B36: target 1 MT 5'PFS UCA 3'PFS UCC (mixed)
RNA 1: B1 RNA 1
RNA 2: B1 RNA 2 with G27U, U28C, U53C, G54C
B37: target 1 MT 5'PFS UCA 3'PFS UCG (mixed)
RNA 1: B1 RNA 1
RNA 2: B1 RNA 2 with G27U, U28C, U53C

The source of these data is paper PMC10786891, “Massively parallel profiling of RNA-targeting CRISPR-Cas13d”.

By Kd is commonly meant the free concentration of one partner at which half of the binding sites on the other are occupied at equilibrium, for simple one-to-one binding. The low end stands for higher affinity, the high end for lower affinity.

Residue numbers refer to the chain shown, from its start. Names and notes keep the numbering of the source.

For this data set, the target named is T1, EsCas13d, nuclease-dead. Put plainly: crRNA (strand 1, pre-loaded); Mg2+; 40 mM Tris-HCl pH 7.5, 150 mM NaCl, 6 mM MgCl2, 1 mM DTT, 0.1% Tween-20, 0.2 mg/ml BSA; 25 C; 10 min per concentration, then washed. The note with it: tags: His6-TwinStrep-SUMO cleaved; N-terminal SNAP kept (SNAP-Surface 488); label: 3' end held by stalled T7 RNA polymerase.
With B1, the Kd was determined as 8.11 ± 0.52 nM.

The molecule B2 had a Kd of 9.85 ± 1.15 nM.

Regarding B3, binding was characterised by a dissociation constant (Kd) of 25 ± 8 nM. This Kd is about 2.5-fold higher than that of the molecule before.

B4 registered a Kd of approximately 75.5 nM.

B5 showed a Kd of 90 ± 40 nM.

Turning to B6, the affinity, expressed as Kd, was 25 ± 5 nM. This Kd lies about 3.6-fold lower than the previous one.

B7 displayed a Kd of 65 ± 27 nM.

For B8, the Kd is approximately 15 nM.

B9 showed a Kd of 24.5 ± 9 nM.

B10 had a Kd of 22.7 ± 1.4 nM.

The molecule B11 registered a Kd of approximately 31.5 nM.

For B12, the affinity, expressed as Kd, was 10.4 ± 3.5 nM.

B13 yielded a Kd of approximately 60 nM.

The molecule B14 returned a Kd of 15.8 ± 1.8 nM.

Take B15: binding was put at a Kd of 19.6 ± 2.4 nM.

B16 returned a Kd of approximately 110 nM.

The molecule B17 displayed a Kd of 14.2 ± 1.3 nM.

In turn, B18 displayed a Kd of 32.5 ± 9.5 nM.

B19 registered a Kd of 18 ± 6 nM.

In the case of B20, the Kd was 4.45 ± 0.6 nM.

B21 had a dissociation constant (Kd) of 63.5 ± 20 nM. This Kd is about 14-fold higher than that of the molecule before.

As to B22, the Kd stood at 25 ± 7 nM.

In turn, B23 returned a Kd of 17.6 ± 3.3 nM.

For B24, the Kd worked out at 12.6 ± 2.1 nM.

With B25, the Kd was determined as 84 ± 33 nM.

Take B26: the Kd is 9.25 ± 1.1 nM.

B27 had a Kd of approximately 37 nM.

In turn, B28 displayed a Kd of 9.7 ± 4.5 nM.

B29 displayed an equilibrium dissociation constant (Kd) of 10.4 ± 0.4 nM.

For the molecule B30, the Kd was approximately 11.5 nM.

With B31, the affinity, expressed as Kd, was 33.5 ± 9.5 nM.

Regarding B32, the Kd was found to be 32 ± 15 nM.

B33 had a Kd of 8.21 ± 0.5 nM.

In the case of B34, the Kd was determined as 13.4 ± 0.6 nM.

B35 had a Kd of approximately 37 nM.

In turn, B36 returned a Kd of 12.5 ± 4.5 nM.

B37 registered a Kd of 31.5 ± 14.5 nM.
